Results as given in PMC6013494, “Dual recognition of H3K4me3 and H3K27me3 by a plant histone reader SHL” (Nature Communications, 2018).
“Also recorded” adds a separate entry of the source. No end group written: not given here. Me3 = trimethyl-lysine; Me2 = dimethyl-lysine

B2: SHL from Populus trichocarpa (PtSHL), wild type (natural protein)
chain: SMAKAKAPRRTLDSYTVKPINKTVKPGDCVLMRPSDPSKPSYVAKIERIESDGRGPNVRVRVRWYYRPEESIGGRRQFHGSKEVFLSDHYDTQSADTIEGKCMVHSFKNYTKLDAVGNDDFFCRFEYNSSTGAFNPDRVAVYCKCEMPYNPDDLMVQCEGCSDWFHPACIEMSAEEAKRLDHFFCENCSSEGQKKLQNSHNTRQSDAKAETKRRRR

Tests used:
[1] = biological target: Arabidopsis SHORT LIFE (AtSHL), full length, tag removed (Arabidopsis) (UniProt Q9FEN9); assay: ITC; Microcal PEAQ-ITC, 20 °C; 100 mM NaCl, 20 mM Tris-HCl pH 8.0; protein titrated by peptide
Chain of Arabidopsis SHORT LIFE (AtSHL), full length, tag removed (Arabidopsis) (Q9FEN9 whole entry): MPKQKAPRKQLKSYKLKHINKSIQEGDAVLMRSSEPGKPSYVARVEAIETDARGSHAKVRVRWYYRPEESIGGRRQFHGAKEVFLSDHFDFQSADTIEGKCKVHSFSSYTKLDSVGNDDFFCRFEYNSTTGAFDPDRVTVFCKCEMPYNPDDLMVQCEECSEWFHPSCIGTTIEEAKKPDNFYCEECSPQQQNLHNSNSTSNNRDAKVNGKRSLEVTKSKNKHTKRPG

[2] = biological target: SHL from Populus trichocarpa (PtSHL), wild type (Populus trichocarpa); assay: ITC; PtSHL pre-saturated with 2-fold excess H3(20-36)K27me3 peptide, titrated by H3(1-15)K4me3 peptide; 20 °C, 100 mM NaCl, 20 mM Tris-HCl pH 8.0
[3] = biological target: SHL from Populus trichocarpa (PtSHL), wild type (Populus trichocarpa); assay: ITC; Microcal PEAQ-ITC, 20 °C; 100 mM NaCl, 20 mM Tris-HCl pH 8.0; protein titrated by peptide
[4] = biological target: SHL from Populus trichocarpa (PtSHL), wild type (Populus trichocarpa); assay: ITC; PtSHL pre-saturated with 2-fold excess H3(1-15)K4me3 peptide, titrated by H3(20-36)K27me3 peptide; 20 °C, 100 mM NaCl, 20 mM Tris-HCl pH 8.0
[5] = biological target: PtSHL Y41A; assay: ITC, PtSHL Y41A; design: species or system Populus trichocarpa; details: 20 °C, pH 8.0, NDB, no detectable binding
Protocol: (§1) The full-length AtSHL was cloned into a pET-Sumo vector to fuse a hexahistidine-sumo tag to the target protein. The plasmids were transformed into Escherichia coli strain BL21(DE3) RIL (Stratagene). The protein expression was induced by adding IPTG to a final concentration of 0.2 mM upon the OD600 of cell culture reaching to 0.7, followed by overnight induction at 20 °C. The recombinant protein was purified using a HisTrap column (GE Healthcare). The hexahistidine-sumo tag was cleaved by ulp1 protease and removed by a second step HisTrap column. The AtSHL protein was further purified using a Superdex G200 column (GE Healcare). The PtSHL was cloned, expressed, and purified using the same strategy as AtSHL. All mutant versions of SHL were generated using a PCR based method and expressed and purified using the same protocol as wild type SHL protein. The peptides were purchased from the GL Biochem Company (Shanghai).
(§2) The interaction between SHL and histone peptides was monitored on a Microcal PEAQ-ITC instrument (Malvern) at 20 °C. An additional artificial tyrosine residue was added to the C-terminus of the peptide in the ITC experiment for accurately measuring the concentration of peptide by OD280. The protein was dialyzed against a buffer of 100 mM NaCl and 20 mM Tris-HCl, pH 8.0 for 3 h and the lyophilized peptides were dissolved into the same buffer. […]

[6] = biological target: PtSHL D90A; assay: ITC, PtSHL D90A; design: species or system Populus trichocarpa; details: 20 °C, pH 8.0, NDB, no detectable binding
Protocol: as §1, §2

[7] = biological target: T1, PtSHL + H3K4me3 (Populus trichocarpa, UniProt B9H0V2); assay: Competitive ITC, PtSHL pre-saturated with 2-fold excess H3(1-15)K4me3; details: ITC binding stoichiometry
T1 sequence (B9H0V2 1-215): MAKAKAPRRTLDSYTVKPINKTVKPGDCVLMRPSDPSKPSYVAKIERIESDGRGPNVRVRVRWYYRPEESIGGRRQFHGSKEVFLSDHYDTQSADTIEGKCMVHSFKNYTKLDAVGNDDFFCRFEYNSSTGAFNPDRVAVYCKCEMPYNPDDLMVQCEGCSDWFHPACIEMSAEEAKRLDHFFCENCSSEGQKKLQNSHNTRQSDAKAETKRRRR
Protocol: To further investigate the binding mechanism of H3K4me3 and H3K27me3 by the two domains of SHL, we performed competitive binding assays.
The interaction between SHL and histone peptides was monitored on a Microcal PEAQ-ITC instrument (Malvern) at 20 °C. An additional artificial tyrosine residue was added to the C-terminus of the peptide in the ITC experiment for accurately measuring the concentration of peptide by OD280. The protein was dialyzed against a buffer of 100 mM NaCl and 20 mM Tris-HCl, pH 8.0 for 3 h and the lyophilized peptides were dissolved into the same buffer. The titration data were fit using the program Origin 7.0.

[8] = biological target: PtSHL H88A; assay: ITC, PtSHL H88A; design: species or system Populus trichocarpa; details: 20 °C, pH 8.0, NDB, no detectable binding
Protocol: as §1, §2

[9] = biological target: PtSHL Y65A; assay: ITC, PtSHL Y65A; design: species or system Populus trichocarpa; details: 20 °C, pH 8.0, NDB, no detectable binding
Protocol: as §1, §2

[10] = tested on: full-length AtSHL; assay: Histone peptide microarray, full-length AtSHL; type: binding, Arabidopsis thaliana; details: 500 nM GST-tagged SHL, 50 mM HEPES, pH 7.5, 50 mM NaCl, RT, 2 h; anti-GST, fluorescence 635 nm; average of three replicate spots
Protocol: Peptide microarray assay was performed as following a previous study. Specifically, the peptide array slide was blocked with blocking solution (1 × PBS, 0.05% Tween-20 pH 7.4, 1% BSA) at 4 °C overnight. After washing three times with 1 ml TTBS buffer (10 mM Tris-HCl, pH 7.5, 150 mM NaCl, 0.05% Tween-20), the slide was incubated with 500 nM GST-tagged recombinant SHL in 1 ml binding buffer (50 mM HEPES, pH 7.5, 50 mM NaCl, 5% glycerol, 0.4% BSA, 2 mM DTT) at RT for 2 h. The slide was then washed with TTBS three times and incubated with an anti-GST antibody (Thermo Fisher, CAB4169, 1:3000 dilution) in TBS with 1% BSA for 1 h at RT. After washing with TTBS three times, the slide was incubated with an anti-rabbit IRDye 650 secondary antibody (LI-COR, P/N 926-65020, 1:5000 dilution) in 1 ml TBS buffer with 1% BSA for 1 h. The slide was washed with TTBS three times, dried by centrifugation, and imaged at dual wavelengths of 532 and 635 nm on Axon GenePix 4000B (Molecular Devices). The laser power was set to 100%, with automatic gain adjustment (0.05% saturation tolerance) for dual photomultipliers. […] Signal intensities were quantified by GenePix Pro 6.1 software (Molecular Devices). […] For each peptide species, an average was calculated from three replicate spots. […]

[11] = biological target: PtSHL W63A; assay: ITC, PtSHL W63A; design: species or system Populus trichocarpa; details: 20 °C, pH 8.0, NDB, no detectable binding
Protocol: as §1, §2

[12] = biological target: PtSHL; assay: ITC, PtSHL (wild type) with histone peptides; design: species or system Populus trichocarpa; details: Microcal PEAQ-ITC, 20 °C, 100 mM NaCl, 20 mM Tris-HCl, pH 8.0, peptide with additional C-terminal tyrosine, PtSHL WT, NDB, no detectable binding
Protocol: as §1, §2

[13] = tested on: full-length AtSHL; assay: Histone peptide pulldown, full-length AtSHL; type: binding, Arabidopsis thaliana; details: biotinylated histone peptides, 2 μg GST-tagged SHL, 50 mM Tris-HCl, pH 8.0, 300 mM NaCl, 3 h at 4 °C; anti-GST immunoblot
Protocol: The […] biotinylated histone peptides were first incubated with 62.5 μl magnetic streptavidin bead slurry (NEB) pre-washed with 1 ml peptide binding buffer (50 mM Tris-HCl, pH 8.0, 300 mM NaCl, 0.1% Nonidet P-40) for 1 h at 4 °C. The peptide-bound beads were washed twice with 1 ml of peptide binding buffer and then incubated with 2 μg GST-tagged SHL proteins in the peptide binding buffer for 3 h at 4 °C. After washing three times with binding buffer, protein-bead complex was boiled in 1XSDS loading buffer (50 mM Tris-HCl, pH 6.8, 2% sodium dodecyl sulfate, 0.01% bromophenol blue, 2 mM dithiothreitol and 2 mM β-mercaptoethanol), subjected to SDS-PAGE gel, and detected with an anti-GST antibody (CAB4169, Thermo Fisher, 1:3000). The raw images of the western blots can be found in Supplementary Fig. 6a.

[14] = biological target: T2, PtSHL Y148A (Populus trichocarpa); assay: ITC
T2 chain: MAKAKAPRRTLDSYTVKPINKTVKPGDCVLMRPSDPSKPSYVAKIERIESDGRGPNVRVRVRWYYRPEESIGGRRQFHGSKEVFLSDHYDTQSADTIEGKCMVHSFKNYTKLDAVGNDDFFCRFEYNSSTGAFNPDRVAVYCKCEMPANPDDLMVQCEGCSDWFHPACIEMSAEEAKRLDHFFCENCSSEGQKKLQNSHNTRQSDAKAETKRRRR

[15] = biological target: T3, PtSHL Q156A (Populus trichocarpa); assay: ITC
T3 chain: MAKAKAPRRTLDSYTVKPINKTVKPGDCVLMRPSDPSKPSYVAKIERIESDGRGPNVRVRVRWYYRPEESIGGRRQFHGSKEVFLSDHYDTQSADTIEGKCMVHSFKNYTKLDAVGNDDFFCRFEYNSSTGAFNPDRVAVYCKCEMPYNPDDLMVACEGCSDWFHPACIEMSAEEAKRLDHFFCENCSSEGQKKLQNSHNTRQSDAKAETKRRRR

[16] = biological target: T4, H3K4me1 (Arabidopsis thaliana); assay: ITC
T4 chain: ARTK(Me)QTARKSTGGKAY

[17] = biological target: T5, H3K4me2 (Arabidopsis thaliana); assay: ITC
T5 chain: ARTK(Me2)QTARKSTGGKAY

[18] = biological target: B2; assay: ITC

Q: Which Kd [1] does the source give for “H3K27me1 peptide with an additional C-terminal tyrosine (ITC)” here?
A: 78.3 µM

Q: Which Kd [1] does the source give for “H3K27me2 peptide with an additional C-terminal tyrosine (ITC)” here?
A: 30.8 µM

Q: For “H3(1-15)K4me3 peptide with an additional C-terminal tyrosine (ITC)”, which Kd [2] is on record?
A: 27.6 µM

Q: And the Kd [3]?
A: 20.6 µM

Q: Which Kd [3] does the source give for “H3(1-35)K4me3K27me3 peptide with an additional C-terminal tyrosine (ITC)” here?
A: 16.9 µM

Q: And the stoichiometry N [3]?
A: 1.17

Q: Which Kd [4] does the source give for “H3(20-36)K27me3 peptide with an additional C-terminal tyrosine (ITC)” here?
A: 18.7 µM

Q: And the Kd [3]?
A: 21.3 µM

Q: What about the Kd [1] of the same molecule?
A: 15.1 µM

Q: For CC(C)C[C@H](N)C(=O)N[C@@H](C)C(=O)N[C@H](C(=O)N[C@@H](CCCCN)C(=O)N[C@@H](C)C(=O)N[C@@H](C)C(=O)N[C@@H](CCCNC(=N)N)C(=O)N[C@@H](CCCC[N+](C)(C)C)C(=O)N[C@@H](CO)C(=O)N[C@@H](C)C(=O)N1CCC[C@H]1C(=O)N[C@@H](C)C(=O)N[C@H](C(=O)NCC(=O)NCC(=O)N[C@H](C(=O)N[C@@H](CCCCN)C(=O)N[C@@H](Cc1ccc(O)cc1)C(=O)O)C(C)C)[C@@H](C)O)[C@@H](C)O [H3K27me3], which Kd [5] is on record?
A: NDB and abolished

Q: And the Kd [6]?
A: NDB and abolished

Q: What about the N-value [7] of the same molecule?
A: 0.818

Q: And the Kd [8]?
A: NDB and abolished

Q: And the Kd [9]?
A: NDB and abolished

Q: And the “binding on histone peptide microarray” value [10]?
A: preferentially binds; also recorded: strong binding affinity

Q: And the Kd [11]?
A: NDB and abolished

Q: What about the Kd [12] of the same molecule?
A: 21.3 µM

Q: What about the “binding in histone peptide pulldown” value [13] of the same molecule?
A: capable of binding

B1: H3(1-15)K4me3 peptide with an additional C-terminal tyrosine (ITC) (peptide)
chain: ARTK(Me3)QTARKSTGGKAY
Q: With B1 as the molecule, how does the Kd [14] read?
A: 44 µM

Q: And the Kd [15]?
A: 66.1 µM

Q: Which results are given for B2?
A: Kd [16]: 67.1 µM; Kd [17]: 23.9 µM

B3: H3K27me1 peptide with an additional C-terminal tyrosine (ITC) (peptide)
chain: LATKAARK(Me)SAPATGGVKY
Q: Which Kd [18] does the source give for B3 here?
A: 58.1 µM

B4: H3K27me2 peptide with an additional C-terminal tyrosine (ITC) (peptide)
chain: LATKAARK(Me2)SAPATGGVKY
Q: For B4, which Kd [18] is on record?
A: 28.9 µM
